Earlier results, collected in paper PMC12524660.

Target: Cys156 (UniProt position 156, VSNASCTTNCL)

Substance: Cytosolic NAD-dependent glyceraldehyde-3-phosphate dehydrogenase C1 (GAPC1) (Arabidopsis thaliana)
- pKa: below pH 6
